Test in all cases: ELISA
Test [1] deals with Collagen I.
Test [2] has as its target Collagen III.
Test [3] concerns the target Collagen I. This is another data set of the same source.
The target of test [4] is Collagen III. This is another data set of the same source.

Like-named read-outs stand apart in the source and are kept apart here.

B1: CBD-SA (other)
chain: CSQPLDVILLLDGSSSFPASYFDEMKSFAKAFISKANIGPRLTQVSVLQYGSITTIDVPWNVVPEKAHLLSLVDVMQREGGPSQIGDALGFAVRYLTSEMHGARPGASKAVVILVTDVSVDSVDAAADAARSNRVTVFPIGIGDRYDAAQLRILAGPAGDSNVVKLQRIEDLPTMVTLGNSFLHKLCSGFVRIGGGSGGGSEAHKSEIAHRYNDLGEQHFKGLVLIAFSQYLQKCSYDEHAKLVQEVTDFAKTCVADESAANCDKSLHTLFGDKLCAIPNLRENYGELADCCTKQEPERNECFLQHKDDNPSLPPFERPEAEAMCTSFKENPTTFMGHYLHEVARRHPYFYAPELLYYAEQYNEILTQCCAEADKESCLTPKLDGVKEKALVSSVRQRMKCSSMQKFGERAFKAWAVARLSQTFPNADFAEITKLATDLTKVNKECCHGDLLECADDRAELAKYMCENQATISSKLQTCCDKPLLKKAHCLSEVEHDTMPADLPAIAADFVEDQEVCKNYAEAKDVFLGTFLYEYSRRHPDYSVSLLLRLAKKYEATLEKCCAEANPPACYGTVLAEFQPLVEEPKNLVKTNCDLYEKLGEYGFQNAILVRYTQKAPQVSTPTLVEAARNLGRVGTKCCTLPEDQRLPCVEDYLSAILNRVCLLHEKTPVSEHVTKCCSGSLVERRPCFSALTVDETYVPKEFKAETFTFHSDICTLPEKEKQIKKQTALAELVKHKPKATAEQLKTVMDDFAQFLDTCCKAADKDTCFSTEGPNLVTRCKDALAHHHHHH
B1: the Kd in the test with Collagen I [1] came out at 1.8 nM; in the test with Collagen III [2] it was 40.6 nM; with Collagen I [3] it was 1.8 nM; with Collagen III [4], 40.6 nM.

The values above are taken from US20220298225A1 (published 2022).
